Values of other authors in paper PMC12805357, “Cooperative ligand binding in a bacterial heme-based oxygen sensor” (The Journal of Biological Chemistry, 2025).

Key:
[1] = set-up: method as in earlier work; conditions: myoglobins; ref 7 of the supplement (Faulkner et al., 1995)
[2] = HemAT-Bs

B1: hhMb: myoglobin comparison protein listed as hhMb in Table S2, literature values (protein, UniProt P68082 2-154, looked up)
Myoglobin: GLSDGEWQQVLNVWGKVEADIAGHGQEVLIRLFTGHPETLEKFDKFKHLKTEAEMKASEDLKKHGTVVLTALGGILKKKGHHEAELKPLAQSHATKHKIPIKYLEFISDAIIHVLHSKHPGDFGADAQGAMTKALELFRNDIAAKYKELGFQG
Midpoint 1 (mV vs SHE) [1]: 37 mV vs SHE

B2: HemAT-Bs: globin-coupled sensor from Bacillus subtilis, MCP output domain (protein, UniProt O07621 1-432, looked up)
Heme-based aerotactic …: MLFKKDRKQETAYFSDSNGQQKNRIQLTNKHADVKKQLKMVRLGDAELYVLEQLQPLIQENIVNIVDAFYKNLDHESSLMDIINDHSSVDRLKQTLKRHIQEMFAGVIDDEFIEKRNRIASIHLRIGLLPKWYMGAFQELLLSMIDIYEASITNQQELLKAIKATTKILNLEQQLVLEAFQSEYNQTRDEQEEKKNLLHQKIQETSGSIANLFSETSRSVQELVDKSEGISQASKAGTVTSSTVEEKSIGGKKELEVQQKQMNKIDTSLVQIEKEMVKLDEIAQQIEKIFGIVTGIAEQTNLLSLNASIESARAGEHGKGFAVVANEVRKLSEDTKKTVSTVSELVNNTNTQINIVSKHIKDVNELVSESKEKMTQINRLFDEIVHSMKISKEQSGKIDVDLQAFLGGLQEVSRAVSHVAASVDSLVILTEE
n (Hill coefficient), O2 binding [2]: 0.45
Kd ([2]; read-out: Kd, equilibrium oxygen affinity): 10 µM
